Tests used:
STAT3 = STAT3 phosphorylation following CIRP and IL-6R interaction, western blot; assay type: cell-based; conditions: n = 6
Procedure: (§3) Cells were divided into control and test groups. For transfection, solution A (plasmid diluted in Opti-MEM) and solution B (Lipofectamine 2000, Life Technologies, USA, diluted in Opti-MEM) were mixed at a 1:2 plasmid-to-lipofectamine ratio. After 6 h, the medium was replaced with DMEM, and GFP fluorescence was observed 24–48 h post-transfection to assess efficiency. Cells were divided into PBS, IL-6R, and CIRP (1 μg/mL for 24 h) groups for further analysis.
Cells were washed twice with PBS, lysed, and sonicated. After a 30-minute rest to ensure thorough lysis, the homogenate was centrifuged at 12,000 rpm at 4 °C for 15 min. The supernatant was collected for protein quantification using the BCA method. Samples were prepared at a concentration of 2 μg/μL, and 15 μL per well was loaded for gel electrophoresis. Proteins were transferred to membranes using a wet transfer method and blocked with 5 % non-fat milk. […] Membranes were incubated with primary antibodies overnight at 4 °C, followed by incubation with secondary antibodies (GAR-HRP, BIOSHARP; GAM-HRP, Jackson) at room temperature for 2 h. Membranes were washed three times with TBST and developed using a chemiluminescent substrate.

[1] = tested on: Cirbp^−/− microglia vs WT microglia; assay: TNF-α and IL-6 release, WT and Cirbp^−/− microglia with rmCIRP, ELISA; assay type: cell-based, mouse; conditions: CIRP treatment, 24 h, n = 3–4
Procedure: ELISA was used to quantify CIRP, MD2, IL-6, and TNF-α concentrations in blood and cerebrospinal fluid samples. Samples were processed and stored under standardized conditions to preserve protein integrity. Each target protein was measured using commercial ELISA kits, following the manufacturer’s instructions: Mouse CIRBP ELISA Kit (CSB-EL005440MO, CUSABIO), Mouse TNF-α ELISA Kit (EK282, Lianke Bio), Mouse IL-6 ELISA Kit (CSB-E04639m, CUSABIO), and […].
(§1) Primary cortical neurons were isolated from embryonic day 16–18 (E16–E18) C57BL/6 mouse embryos as previously described, and cultured in Neurobasal medium supplemented with B27 and GlutaMAX (Gibco).Primary microglial cells were isolated from the cortices of neonatal (day 1) C57BL/6J mice. After disinfection with 75 % ethanol, the skin and skull were removed, and the brains were placed in ice-cold HBSS. The meninges were peeled off, the cortex was collected, and the hippocampus was discarded. Tissues were digested with 0.25 % trypsin at 37 °C for 12 min, centrifuged at 1200 rpm for 5 min, and resuspended in complete medium. […]
(§2) RBCs were isolated via density gradient centrifugation and labeled with CFSE before being stereotactically injected into the right striatum. […] Cell viability was assessed using a Fixable Viability Dye, and flow cytometric analysis was subsequently performed. […]

microglia [2] = assay: IL-6 release from CIRP-stimulated microglia, ELISA (TCC vs TC); assay type: cell-based, mouse; conditions: peptides 10 μM pre-treated 0.5 h, then rmCIRP 1 μg/mL 24 h, n = 3
Procedure: To validate the effects of TCC and TC in vitro, microglial cells were pre-treated with the peptides (10 μM) for 0.5 h, followed by stimulation with recombinant mouse CIRP (rmCIRP, 1 μg/mL) for 24 h to establish an inflammation model.
ELISA was used to quantify CIRP, MD2, IL-6, and TNF-α concentrations in blood and cerebrospinal fluid samples. Samples were processed and stored under standardized conditions to preserve protein integrity. Each target protein was measured using commercial ELISA kits, following the manufacturer’s instructions: Mouse CIRBP ELISA Kit (CSB-EL005440MO, CUSABIO), Mouse TNF-α ELISA Kit (EK282, Lianke Bio), Mouse IL-6 ELISA Kit (CSB-E04639m, CUSABIO), and Rat TNF-α ELISA Kit (EK382, Lianke Bio).
After disinfection with 75 % ethanol, the skin and skull were removed, and the brains were placed in ice-cold HBSS. The meninges were peeled off, the cortex was collected, and the hippocampus was discarded. Tissues were digested with 0.25 % trypsin at 37 °C for 12 min, centrifuged at 1200 rpm for 5 min, and resuspended in complete medium. The suspension was transferred to a T75 flask with 15 mL of complete medium. After 14 days, microglial cells were harvested by shaking the flask at 270–280 rpm for 30 min, and the supernatant was collected. […] CIRP (1 μg/mL for 24 h) was added to the microglia, which were divided into PBS, CIRP, and CIRP + TCC groups. […]

IL-6R = assay: Co-immunoprecipitation of CIRP and IL-6R; assay type: binding; conditions: Co-IP, n = 3
Procedure: as §3
The beads were washed twice with lysis buffer to remove unbound proteins. Bound proteins were eluted by boiling the beads in sample buffer at 95°C for 3 min and subjected to Western blot analysis.

microglia [3] = assay: Microglial phagocytosis of CFSE-labeled RBCs; assay type: cell-based, mouse; conditions: CFSE-labeled erythrocytes 10:1, 4 h; TCC pretreatment then CIRP; n = 6
Excerpt: as §1, with “medium. The suspension was transferred to a T75 flask with 15 mL of complete medium. After 14 days, microglial cells were harvested by shaking the flask at 270–280 rpm for 30 min, and the supernatant was collected.” for “medium.”
The functional characteristics of microglial cells encompass not only the release of inflammatory cytokines but also their phagocytic activity. […] RBCs were labeled with either 0.5 μM or 5 μM CFSE, and immunofluorescence analysis determined that 5 μM CFSE was the optimal concentration for labeling (Fig. 7G). […]
as §2

[4] = tested on: IL-6Rα/STAT3 pathway in microglia; assay: IL-6Rα expression and p-STAT3 in CIRP-stimulated microglia; assay type: cell-based, mouse; conditions: CIRP stimulation with or without TCC
Procedure: Brain tissues were fixed in paraformaldehyde, dehydrated, and sectioned at 30 µm using a microtome (CM1900UV, Leica, Germany). Sections were floated onto glass slides and left overnight at room temperature. For cultured cells, after discarding the medium, cells were washed twice with PBS, fixed with precooled 4 % PFA at 4 °C for 10 min, and washed three times with PBS (10 min each) on a shaker. Cells were permeabilized with 0.3 % Triton X-100 in PBS for 20 min, blocked with 5 % donkey serum for 1 h, and incubated overnight at 4 °C with primary antibodies (Iba-1, Rabbit polyclonal, Wako; NeuN, Millipore; GFAP, CST; MBP, Abcam; SMI32, Millipore). The next day, sections were brought to room temperature, washed three times with PBST (PBS + Tween-20), and incubated with secondary antibodies for 1 h in the dark. After three more PBST washes, samples were mounted with DAPI-containing medium and sealed. Fluorescence was visualized using a DM4000B microscope and images were captured with a Leica TCS SP8 confocal microscope. […]
Brain tissue adjacent to the hemorrhagic striatum was homogenized in lysis buffer with protease inhibitors. […] The supernatant was collected for protein quantification using the BCA method. […]

B1: recombinant human CIRP (cold-inducible RNA-binding protein) (natural protein, UniProt Q14011 1-172, looked up)
chain: MASDEGKLFVGGLSFDTNEQSLEQVFSKYGQISEVVVVKDRETQRSRGFGFVTFENIDDAKDAMMAMNGKSVDGRQIRVDQAGKSSDNRSRGYRGGSAGGRGFFRGGRGRGRGFSRGGGDRGYGGNRFESRSGGYGGSRDYYSSRSQSGGYSDRSSGGSYRDSYDSYATHNE
notes: UniProtKB Q14011 is printed for the docking; also called rhCIRP; human CIRBP; source: recombinant
STAT3
  phosphorylation of STAT3: induced phosphorylation of the STAT3
[1]
  IL-6 and TNF-α secretion, Cirbp^−/− vs WT microglia: marked decrease in the secretion of both IL-6 and TNF-α levels
Microglia [2]
  IL-6 release in culture supernatants: significantly increased IL-6 levels
IL-6R
  interaction between CIRP and IL-6R: confirmed a interaction between CIRP and IL-6R
Microglia [3]
  microglial phagocytosis of RBCs: significantly reduced in the CIRP group compared to the PBS group
[4]; immunofluorescence
  IL-6Rα expression on microglia: IL-6Rα expression on the microglial membrane significantly increased
[4]; western blot, n = 6
  p-STAT3 level in microglia: increase in the p-STAT3/GAPDH ratio compared to the PBS control group
